Measurements reported in patent publication US20020177126A1.

What follows are binders tested on F protein of wild type RSV A/Long (respiratory syncytial virus, strain A/Long) (UniProt P12568) (assay: cell-based or functional assay).
Sequence of F protein of wild type RSV A/Long (respiratory syncytial virus, strain A/Long) (P12568 26-574): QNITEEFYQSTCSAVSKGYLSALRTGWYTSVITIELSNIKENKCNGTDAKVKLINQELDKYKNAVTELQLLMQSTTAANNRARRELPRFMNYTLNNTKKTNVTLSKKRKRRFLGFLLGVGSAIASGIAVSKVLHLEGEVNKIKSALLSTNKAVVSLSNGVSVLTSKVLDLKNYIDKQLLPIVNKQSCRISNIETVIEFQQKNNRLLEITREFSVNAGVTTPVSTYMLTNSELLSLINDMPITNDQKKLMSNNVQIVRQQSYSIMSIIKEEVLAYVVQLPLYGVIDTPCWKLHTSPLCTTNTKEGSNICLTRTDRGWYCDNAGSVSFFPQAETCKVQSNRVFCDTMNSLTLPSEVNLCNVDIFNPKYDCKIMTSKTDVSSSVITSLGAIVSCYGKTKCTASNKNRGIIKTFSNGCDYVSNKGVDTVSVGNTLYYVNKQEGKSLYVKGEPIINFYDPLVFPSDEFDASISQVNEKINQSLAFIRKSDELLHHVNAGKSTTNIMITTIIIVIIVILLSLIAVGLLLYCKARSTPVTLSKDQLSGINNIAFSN

Row | Binder | Fold Difference (Control IC50) [fold] | Fold Difference (Curve IC50) [fold] | Mean IC50 (Control), RSV microneutralization [µg/mL] | Mean IC50 (Curve), RSV microneutralization [µg/mL]
1 | A17d4 (Fab) (Fab, V domains shown) VH: QVTLRESGPALVKPTQTLTLTCTFSGFSLSTAGMSVGWIRQPPGKALEWLADIWWDGKKSYNPSLKDRLTISKDTSKNQVVLKVTNMDPADTATYYCARDMIFNFYFDVWGQGTTVTVSS VL: DIQMTQSPSTLSASVGDRVTITCLPSSRVGYMHWYQQKPGKAPKLLIYDTMYQASGVPSRFSGSGSGTEFTLTISSLQPDDFATYYCFQFSGYPFTFGGGTKLEIK | 31 | 25 | 0.0171 | 0.0179
2 | A8c7 (Fab) (Fab, V domains shown) VH: QVTLRESGPALVKPTQTLTLTCTFSGFSLSTAGMSVGWIRQPPGKALEWLADIWWDDKKSYNPSLKDRLTISKDTSKNQVVLKVTNMDPADTATYYCARDMIFNWYFDVWGQGTTVTVSS VL: DIQMTQSPSTLSASVGDRVTITCSASSRVGYMHWYQQKPGKAPKLLIYDTRYQSSGVPSRFSGSGSGTEFTLTISSLQPDDFATYYCFQGSGYPFTFGGGTKLEIK | 34 | 3 | 0.157 | 0.177
3 | A1h5 (Fab) (Fab, V domains shown) VH: QVTLRESGPALVKPTQTLTLTCTFSGFSLSTPGMSVGWIRQPPGKALEWLADIWWDGKKHYNPSLKDRLTISKDTSKNQVVLKVTNMDPADTATYYCARDMIFNWYFDVWGQGTTVTVSS VL: DIQMTQSPSTLSASVGDRVTITCSLSSSVGYMHWYQQKPGKAPKLLIYDTFFHRSGVPSRFSGSGSGTEFTLTISSLQPDDFATYYCFQGSGYPFTFGGGTKLEIK | 3 | 2 | 0.176 | 0.194
4 | A4B4 (Fab) (Fab, V domains shown) VH: QVTLRESGPALVKPTQTLTLTCTFSGFSLSTAGMSVGWIRQPPGKALEWLADIWWDDKKHYNPSLKDRLTISKDTSKNQVVLKVTNMDPADTATYYCARDMIFNFYFDVWGQGTTVTVSS VL: DIQMTQSPSTLSASVGDRVTITCSASSRVGYMHWYQQKPGKAPKLLIYDTFFLDSGVPSRFSGSGSGTEFTLTISSLQPDDFATYYCFQGSGYPFTFGGGTKLEIK | 13 | 11 | 0.0411 | 0.0414
